B1: 4A11 (antibody, V domains shown)
VH: QVQLKQSGAELVRPGTSVKLSCKASGYTFTDYYINWVKQRPGQGLEWIARIYPGSGNTFYNEKFQDKATLTAEKSSSTAYMQLSSLTSEDSAVYFCANTPSYGSSHWYFDVWGTGTTVTVSS
VL: DIVMTQSHKFMSTSVGDRVSITCKASQDVNTAVAWYQQKPGQSPKLLIYWASTRHTGVPDRFTGSGSGTDFTLTISNVQSEDLADYFCQQYSTYPRTFGGGTKLEIKR
notes: Entries are printed with leader peptide and part of the mouse constant region; also called LILRB1 antibody 4A11
B2: 4D5 (antibody, V domains shown)
VH: QVQLQQPGAELVRPGSSVKLSCKASGYTFTSYWMDWVKQRPGQGLEWIGNIYPSDSATHYNQKFKDKATLTVDKSSSTAYMHLSSLTSEDSAVYYCARGLLQYFDVWGTGTSVTVSS
VL: DIQMTQSPASLSVSVGETVTITCRASENIYSNLAWYQQKQGKSPQLLVYGATNLADGVPSRFSGSGSGTQYSLKINSLQSEDFGSYYCQHFWGIPWTFGGGTKLEIKR
notes: Entries are printed with leader peptide and part of the mouse constant region; also called LILRB1 antibody 4D5
B3: 4H5 (antibody, V domains shown)
VH: QIQLQQSGPELVKPGASVKISCKASGYTFTDYYINWVKQRPGQGLEWIGWIYPGGDNTKYNEKFKDKATLTVDTSSSTTYMQLSSLTSEDSAVYFCARFEDKYSSNYWFAYWGQGTLVTVSA
VL: DILLTQSPAILSVSPGERVSFSCRASQYIGTSIHWYQQRTNGSPRLLIKYASESISGIPSRFSGSGSGTDFTLSINSVESEDVADYYCQQSNRWPFTFGSGTKLEIKR
notes: Entries are printed with leader peptide and part of the mouse constant region; also called LILRB1 antibody 4H5
B4: 5B3 (antibody, V domains shown)
VH: QVQLKESGPGLVAPSQSLSITCTVSGFSLTSYGIDWVRQPPGKGLEWLGVIWGGGNTNYNSALMSRLTISKDNSKSQVFLKMNSLQTDDTAMYYCAKANWDSYAMDYWGQGTSVTVSS
VL: DIQMNQSPSSLSASLGDTITITCHASQNINFWLNWYQQKPGNIPKLLIYKASNLHTGVPSRFSGSGSGTGFTLTISSLQPEDIATYYCQQGQSYPLTFGGGTKVEIKR
notes: Entries are printed with leader peptide and part of the mouse constant region; also called LILRB1 antibody 5B3
B5: 5E11 (antibody, V domains shown)
VH: QVQLKESGPGLVAPSQSLSITCTVSGFSLSSYGVNWVRQPPGKGLEWLGVIWGDGSTNYHSALISRLSISKDNSKSQVFLKLNSLQTDDTATYYCAKPNWDYYAMEYWGQGTSVTVSS
VL: DIQMTQTTSSLSASLGDRVTITCRASQDISNFLNWYQQKPDGPVKLLIYYTSRLHSGVPSRFSGSGSGTDYSLTISNLEQEDIATYFCQQGNTLPWTFGGGTKLEIKR
notes: Entries are printed with leader peptide and part of the mouse constant region; also called LILRB1 antibody 5E11
B6: 1B10 (antibody, V domains shown)
VH: QVQLQQPGAELVKPGASVKLSCKASGYTFTNYWVQWVKQRPGQGLEWIGMIHPNSGSTNSNEKFKNKATLTVDRSSSTAYMQLSRLTSEDSAVYYCARGDDGYLYYFDYWGQGTTLTVSS
VL: QIVLTQSPALMSASPGEKVTMTCSASSSVSHMYWYQQKPRSSPKPWIYLTSNLASGVPARFSGSGSGTSYSLTISNMEAEDAATYYCQQWSSYAFTFGSGTKLEIKR
notes: The entries called 'variable region' are printed with the leader peptide and part of the mouse constant region; also called LILRB1 antibody 1B10
B7: 5E6 (antibody, V domains shown)
VH: QVQLQQSAAELVKPGASVKISCKVSGQSFTDHTIHWMKQRPEQGLEWIGYIFPRDGFTEYNERFKGKATLTADKSSSTAYMHLNSLTSEDSAVYFCAGNWDALDYWGPGTSVTVSS
VL: DIVLTQSPATLSVTPGDSVSLSCRASQSISKYLHWYQQKSHESPRLLIKYVSQSISGIPSRFSGSGSGTDFTLSINSVETEDFGIYFCQQSNSWPLTFGAGTKLELKR
notes: Entries are printed with leader peptide and part of the mouse constant region; also called LILRB1 antibody 5E6
B8: 5H12 (antibody, V domains shown)
VH: QVQLKESGPGLVAPSQSLSITCTVSGFSLSSYGVNWVRQPPGKGLEWLGVIWGDGSTNYHSALISRLSISKDNSKSQVFLKLNSLQTDDTATYYCAKPNWDYYAMEYWGQGTSVTVSS
VL: GIVMTQSQKFMSSTVGDRVSITCKASQNVGAAVIWYQQKPGQSPKLLIYSASNRYTGVLDRFTGSGSGTDFTLTISNMQSEDLADYFCQQYSSYPWTFGGGTKLEIKR
notes: Entries are printed with leader peptide and part of the mouse constant region; also called LILRB1 antibody 5H12
B9: 6A11 (antibody, V domains shown)
VH: QIQLQQSGPELVKPGASVKISCKASGYTFTDYYINWVKQRPGQGLEWIGWIYPGSGNTKYNEKFKGKATLTVDTSSSTAYMQLSSLTSEDSAVYFCARFEDKHSSNYWFAYWGQGTLVTVSA
VL: DILLTQSPAILSVSPGERVSFSCRASQYIGTSIHWYQQRTNGSPRLLIKYASESISGIPSRFSGSGSGTDFTLSINSVESEDIADYYCQQSNSWPFTFGSGTKLEIKR
notes: Entries are printed with leader peptide and part of the mouse constant region; also called LILRB1 antibody 6A11
B10: 6A6 (antibody, V domains shown)
VH: QVQLQQSGPELVKPGASVKISCKASGYSFTSSYIHWVKQRPGQGLEWIGWIYPGSGNTKYNERFKGKATLTADTSSSTAYMHLSSLTSEDSAVYYCARNYGTSYGWYFDVWGTGTTVTVSS
VL: DIVMTQSQKFMSTTVGDRVSITCKASQNVGTAVAWYQQKPGQSPKLLIYSLSNRYTGVPDRFTGSGSGTDFTLTISNMQSEDLTDYFCQQYSSYPLTFGAGTKLELKR
notes: Entries are printed with leader peptide and part of the mouse constant region; also called LILRB1 antibody 6A6
B11: 6B7 (antibody, V domains shown)
VH: QIQLVQSGPELKKPGETVKISCKASGYTFTNYGLSWVKQAPGKGLKWMGWINTYSGVTTYADDFKGRFAFSLETSASTAYLQINNLKSEDTATYFCARRSYDYSHYYAMDYWGQGTSVTVSS
VL: ETTVTQSPASLSVATGEKVTIRCITSTDIDDDINWYQQKPGEPPKFLISEGNTLRPGVPSRFSSSGYGTDFVFTIENTLSEDVADYYCLQSNNMPYTFGGGTKLEIKR
notes: Entries are printed with leader peptide and part of the mouse constant region; also called LILRB1 antibody 6B7
B12: 3E12 (antibody, V domains shown)
VH: QVQLQQSGAELMKPGASVKLSCKATGYTFTGYWIEWVKQRPGHGLEWIGEILLGSGNTNYNENFKGKATLTADTSSNTAYMQLSSLTTEDSAIYYCASTHDGYWGQGTTLTVSS
VL: QFILTQSPAIMSASPGEKVTITCSASSSVSYMHWFQQKPGTSPKLWIYSTSNLASGVPARFSGSGSGTSYSLTISRMEAEDAATYYCQRRSSYPFTFGSGTKLEIKR
notes: Entries are printed with leader peptide and part of the mouse constant region; also called LILRB1 antibody 3E12
B13: 4C2 (antibody, V domains shown)
VH: QVQLQQPGAALVKPGASVKLSCKASGYTFTSYWMHWVKQRPGQGLEWIGMIHPNSGSTNYNEKFRSEATLTVDKSSSTVYMQLSSLTSEDSAVYYCARSGDAYYDGLDYWGQGTSVTVSS
VL: DIQMNQSPSSLSASLGDTITITCHARQNINVWLSWYQQKPGNIPKLLIYKASNLHTGVSSRFSGSGSGTGFTLTISSLQPEDIATYYCQQGQSYPWTFGGGTKLEIKR
notes: Entries are printed with leader peptide and part of the mouse constant region; also called LILRB1 antibody 4C2
B14: 4A10 (antibody, V domains shown)
VH: QVQLQQPGAELVKPGASVKLSCKASGYTFTNYWMYWVKQRPGQGLEWIGMIHPNSDSTNYNEKFKNKATLTVDRSSSTAYMQLSSLTSEDSAVYCCARGEDNYDYVMDYWGQGTSVTVSS
VL: DIVMTQAAPSVPVTPGESVSISCRSSKSLLHSYGNTHLYWFLQRPGQSPQLLIYRMSNLASGVPDRFSGSGSGTAFTLRISRVEAEDVGVYYCMQHLEYPLTFGAGTKLELKR
notes: Entries are printed with leader peptide and part of the mouse constant region; also called LILRB1 antibody 4A10
B15: 1A8 (antibody, V domains shown)
VH: EVQLVESGGDLVKPGESLKLSCAASGFSFSSYDMSWVRQTPDKRLEWVTTISSGGDYTYFPDILKGRFTISRDNAKHTLYLQLSSLKSEDTAMYYCARWDSNFPHWYFDVWGTGTTVTVSS
VL: DIVLTQSPASLAVSLGQRATISCRASESVDKSGISFLHWYQQKPRQPPKLLIYRASNLESGIPGRFSGSGSRTDFTLSINPVEPDDVATYYCQQSNKDPFTFGGGTKLEIKR
notes: Entries are printed with leader peptide and part of the mouse constant region; also called LILRB2 antibody 1A8
B16: 1C8 (antibody, V domains shown)
VH: EVKLVESGGGLVQPGGSLKLSCAASGFTFSDYYMYWVRQTPEKRLEWVAYISNGGGNTYYPDTVKGRFTISRDNAKNTLYLQMSRLKSEDTAMYYCARQLEDWYFDVWGTGTTVTVSS
VL: DIVMTQSHKFMSTSVGDRVSITCKASQDVSTAVAWSQQKPGQSPKLLVYWASARHTGVPDRFTGSGSGADYTLTISSVQAEDLALYYCQQHFSTPLTFGAGTKLELKR
notes: Entries are printed with leader peptide and part of the mouse constant region; also called LILRB2 antibody 1C8
B17: 1G3 (antibody, V domains shown)
VH: EVQLVESGGDLVKPGGSLKLSCAASGFTFSSYDMSWVRQTPDKRLEWVATISSGGSYTFYPDSVKGRFTISRDNAKNTLSLQMSSLKSEDTAIYYCARWDSNYLRWFFDVWGTGTTVTVSS
VL: DIVLTQSPASLAVSLGQRATISCRASESVDNNGISFMHWYQQKPGQSPKLLIYRASNLESGIPARFSGSGSRTDFTLTINPVETDDVATYYCQQSNDDPFTFGGGTKLEIKR
notes: Entries are printed with leader peptide and part of the mouse constant region; also called LILRB2 antibody 1G3
B18: 10F5 (antibody, V domains shown)
VH: EVQLVESGGDLVKPGGSLKLSCAASGFTFSSYDMSWVRQTPDKRLEWVATISSGASYTYYPDSVKGRFTISRDNAKNTLYLQMSSLKSEDTAIYYCARWDSKYLRWYFDVWGTGTTVTVSS
VL: DIVLTQSPASLAVSLGQRATISCRASESVDNNGISFMHWYQQKPGQSPKLLISRASNLESGIPARFSGSGSRTDFTLTINPVETDDVATYYCQQSNEDPFTFGGGTKLEIKR
notes: Entries are printed with leader peptide and part of the mouse constant region; also called LILRB2 antibody 10F5
B19: 2F10 (antibody, V domains shown)
VH: EVQLQQSGPELVKPGASVKISCKASGYTFTDDYMNWVKQSHGKSLEWIGDINPTNGDTNYNQKFKGKATLTVDKSSSTAYMELRGLTSEDSAVYYCARGSSPFTYWGQGTLVTVSA
VL: DIQMTQTTSSLSASLGDRVTISCSASQGISNYLNWYQQKPDGTVKLLIYYTSSLYSGVPSRFSGSGSGTDYSLTISNLEPEDIATYYCQQYSKLPWTFGGGTKLEIKR
notes: Entries are printed with leader peptide and part of the mouse constant region; also called LILRB2 antibody 2F10
B20: 2G9 (antibody, V domains shown)
VH: EVKLVESGGGLVQPGGSLKLSCAASGFTFSDYYMYWVRQTPEKRLEWVAYISNGGGNTYYPDTVKGRFTISRDNAKNTLYLQMSRLKSEDTAMYYCARNRDDWYFDVWGTGTTVTVSS
VL: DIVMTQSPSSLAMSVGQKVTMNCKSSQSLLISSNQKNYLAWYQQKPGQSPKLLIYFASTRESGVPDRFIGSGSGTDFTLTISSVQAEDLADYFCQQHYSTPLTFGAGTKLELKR
notes: Entries are printed with leader peptide and part of the mouse constant region; also called LILRB2 antibody 2G9

These binders were tested against T1, Recombinant human Fc-tagged extracellular domain of LILRB1 (human, UniProt Q8NHL6 24-461) (assay: SPR, Biacore X100; LILRB1-Fc amine-coupled to CM5 chip, antibody injected at 3.7-300 nM).
T1 construct: extracellular domain; Bought from R&D Systems; also called LILRB1-Fc; not shown: Fc tag
Protocol: (§1) Dissociation constants (Kd) for mouse anti-human LILRB1 and LIRB2 antibodies were determined using a Biacore X100 surface plasmon resonance instrument (Cytivia). Recombinant human Fc-tagged extracellular domains of LILRB1 or LILRB2 (LILRB1-Fc or LILRB2-Fc; R&D Systems) were immobilized on a Biacore CM5 biosensor chip by amine coupling at a density of 40-50 relative units (RU). Purified mouse monoclonal antibodies were injected over the biosensor in a concentration series of 3.7, 11, 33, 100, and 300 nM in HBS-EP buffer (10 mM HEPS pH 7.4, […], 3 mM EDTA, 0.005% v/v Surfactant P20) at a flow rate of 50 μL/min. Regeneration of the chip was achieved by a 30 s injection of 10 mM glycine-HCl, pH 1.7. Affinity parameters were determined by fitting response data using the accompanying Biacore X100 analysis software.

T1 sequence (Q8NHL6 24-461): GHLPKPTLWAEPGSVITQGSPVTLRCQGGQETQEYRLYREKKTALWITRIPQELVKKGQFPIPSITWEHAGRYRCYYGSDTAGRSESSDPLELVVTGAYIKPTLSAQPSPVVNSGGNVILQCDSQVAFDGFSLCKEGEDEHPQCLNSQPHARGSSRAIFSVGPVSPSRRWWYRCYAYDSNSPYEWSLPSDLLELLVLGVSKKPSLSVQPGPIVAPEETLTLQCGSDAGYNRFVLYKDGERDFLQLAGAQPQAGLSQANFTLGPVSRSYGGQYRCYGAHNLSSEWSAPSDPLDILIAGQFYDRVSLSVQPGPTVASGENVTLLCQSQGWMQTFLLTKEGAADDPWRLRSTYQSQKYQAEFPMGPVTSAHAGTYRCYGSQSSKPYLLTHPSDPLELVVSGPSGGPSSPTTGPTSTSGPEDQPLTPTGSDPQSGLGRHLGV

Binder | -log(Kd)
B1 | 7.76
B2 | 7.89
B3 | 12.6
B4 | 8.76
B5 | < 3
B6 | 8.13
B7 | 8.2
B8 | 8.26
B9 | 12.4
B10 | 7.98
B11 | 6.58
B12 | 11.6
B13 | 12.7
B14 | 7.89

The binders below were run against T2, Recombinant human Fc-tagged extracellular domain of LILRB2 (human, UniProt Q8N423 22-460) (assay: SPR, Biacore X100; LILRB2-Fc amine-coupled to CM5 chip, antibody injected at 3.7-300 nM).
T2 construct: extracellular domain; Bought from R&D Systems; also called LILRB2-Fc; not shown: Fc tag
Protocol: as §1

T2 sequence (Q8N423 22-460): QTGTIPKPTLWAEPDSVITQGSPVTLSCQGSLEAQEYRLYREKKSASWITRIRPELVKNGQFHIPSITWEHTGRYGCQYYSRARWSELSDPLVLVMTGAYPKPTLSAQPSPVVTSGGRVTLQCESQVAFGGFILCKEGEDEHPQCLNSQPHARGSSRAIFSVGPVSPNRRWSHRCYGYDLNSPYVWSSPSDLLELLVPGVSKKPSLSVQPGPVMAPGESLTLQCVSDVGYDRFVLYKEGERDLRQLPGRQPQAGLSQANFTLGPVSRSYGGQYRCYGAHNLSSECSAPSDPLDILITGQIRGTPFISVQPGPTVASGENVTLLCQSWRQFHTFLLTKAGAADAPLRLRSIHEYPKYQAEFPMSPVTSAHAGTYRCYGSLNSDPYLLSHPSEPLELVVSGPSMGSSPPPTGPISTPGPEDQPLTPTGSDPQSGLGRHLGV

Binder | -log(Kd)
B15 | 7.79
B16 | 7.64
B17 | 8.05
B18 | 7.95
B19 | 8.4
B20 | 8.33
